T1: GRIP1_7, Q9Y3R0
T1 sequence (Q9Y3R0 999-1096, limits assumed, looked up): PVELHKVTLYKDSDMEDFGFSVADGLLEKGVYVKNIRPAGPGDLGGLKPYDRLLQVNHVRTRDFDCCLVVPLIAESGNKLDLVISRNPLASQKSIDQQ

T2: MPP7, Q5T2T1
T2 sequence (Q5T2T1 134-230, limits assumed, looked up): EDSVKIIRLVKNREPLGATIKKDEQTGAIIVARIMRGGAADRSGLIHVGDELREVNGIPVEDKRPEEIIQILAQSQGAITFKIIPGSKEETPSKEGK

T3: SYNJ2BP, P57105
T3 sequence (P57105 8-110, limits assumed, looked up): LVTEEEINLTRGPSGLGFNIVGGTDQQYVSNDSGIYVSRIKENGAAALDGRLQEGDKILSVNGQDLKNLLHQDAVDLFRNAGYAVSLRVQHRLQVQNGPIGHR

T4: GRIP1_3, Q9Y3R0
T4 sequence (Q9Y3R0 247-346, limits assumed, looked up): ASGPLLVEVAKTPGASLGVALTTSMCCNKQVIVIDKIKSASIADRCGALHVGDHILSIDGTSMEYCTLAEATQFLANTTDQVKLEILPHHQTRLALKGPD

T5: APBA1_1, Q02410
T5 sequence (Q02410 651-752, limits assumed, looked up): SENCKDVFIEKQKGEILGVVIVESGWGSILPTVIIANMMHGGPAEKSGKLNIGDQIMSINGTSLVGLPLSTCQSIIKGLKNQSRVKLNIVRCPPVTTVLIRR

T6: TJP3_3, O95049
T6 sequence (O95049 375-456, limits assumed, looked up): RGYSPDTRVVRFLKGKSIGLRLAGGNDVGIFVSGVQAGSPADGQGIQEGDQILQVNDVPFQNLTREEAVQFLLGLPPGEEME

T7: GRIP1_5, Q9Y3R0
T7 sequence (Q9Y3R0 568-668, limits assumed, looked up): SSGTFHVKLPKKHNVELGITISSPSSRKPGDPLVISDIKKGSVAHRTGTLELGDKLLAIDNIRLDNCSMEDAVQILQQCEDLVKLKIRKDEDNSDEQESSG

T8: GRIP1_2, Q9Y3R0
T8 sequence (Q9Y3R0 145-248, limits assumed, looked up): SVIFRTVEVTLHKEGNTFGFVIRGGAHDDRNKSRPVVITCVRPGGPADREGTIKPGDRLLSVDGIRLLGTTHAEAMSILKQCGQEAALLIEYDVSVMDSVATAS

T9: APBA2_1, Q99767
T9 sequence (Q99767 563-664, limits assumed, looked up): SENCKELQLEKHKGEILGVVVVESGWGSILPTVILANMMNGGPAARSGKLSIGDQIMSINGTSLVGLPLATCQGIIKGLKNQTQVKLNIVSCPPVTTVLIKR


Key:
Experiment in all cases: holdup assay
Parameters in all cases: key: below the threshold = too weak to quantify, mostly under pKd 3.1 to 4
Details in all cases: plain residues with an end cap or a label only (N-terminal biotin on a linker: ado-ado)
[1] = target: LAP2, Q96RT1
Chain of LAP2, Q96RT1 (Q96RT1 other isoform, or with tags, fused parts or gaps): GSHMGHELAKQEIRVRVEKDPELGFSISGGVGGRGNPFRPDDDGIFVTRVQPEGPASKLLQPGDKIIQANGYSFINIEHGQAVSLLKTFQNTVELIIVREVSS

[2] = target: T1, GRIP1_7, Q9Y3R0
[3] = target: HTRA2, O43464
Chain of HTRA2, O43464 (O43464 355-458): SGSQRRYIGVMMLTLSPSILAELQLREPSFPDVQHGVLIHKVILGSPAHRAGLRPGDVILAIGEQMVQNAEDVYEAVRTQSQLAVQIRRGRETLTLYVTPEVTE

[4] = target: GRIP2_6, Q9C0E4
Chain of GRIP2_6, Q9C0E4 (Q9C0E4 648-740): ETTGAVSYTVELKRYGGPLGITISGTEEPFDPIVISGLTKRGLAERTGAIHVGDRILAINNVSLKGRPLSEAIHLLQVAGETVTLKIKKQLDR

[5] = target: SCRIB_2, Q14160
Chain of SCRIB_2, Q14160 (Q14160 857-960): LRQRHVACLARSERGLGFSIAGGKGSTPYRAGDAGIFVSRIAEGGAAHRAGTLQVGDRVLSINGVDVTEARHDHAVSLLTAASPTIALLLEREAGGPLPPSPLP

[6] = target: GRIP2_5, Q9C0E4
Chain of GRIP2_5, Q9C0E4 (Q9C0E4 544-642): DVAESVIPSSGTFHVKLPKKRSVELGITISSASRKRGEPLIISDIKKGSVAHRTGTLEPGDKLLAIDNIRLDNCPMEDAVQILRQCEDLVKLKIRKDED

[7] = target: PDZRN4_1, Q6ZMN7
Chain of PDZRN4_1, Q6ZMN7 (Q6ZMN7 213-318): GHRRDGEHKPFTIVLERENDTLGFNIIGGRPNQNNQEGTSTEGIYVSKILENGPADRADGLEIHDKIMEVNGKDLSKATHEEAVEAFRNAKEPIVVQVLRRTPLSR

[8] = target: T2, MPP7, Q5T2T1
[9] = target: GORASP2, Q9H8Y8
[10] = target: Inadl_2, Q8NI35
Chain of Inadl_2, Q8NI35 (Q8NI35 238-335): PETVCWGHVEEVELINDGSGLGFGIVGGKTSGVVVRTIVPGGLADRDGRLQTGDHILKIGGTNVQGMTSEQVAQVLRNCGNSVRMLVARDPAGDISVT

[11] = target: DLG5_1, Q8TDM6
Chain of DLG5_1, Q8TDM6 (Q8TDM6 617-713): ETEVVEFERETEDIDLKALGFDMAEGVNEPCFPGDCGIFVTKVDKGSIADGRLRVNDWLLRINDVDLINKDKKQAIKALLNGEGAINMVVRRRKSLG

[12] = target: GRID2IP_1, A4D2P6
Chain of GRID2IP_1, A4D2P6 (A4D2P6 1-87): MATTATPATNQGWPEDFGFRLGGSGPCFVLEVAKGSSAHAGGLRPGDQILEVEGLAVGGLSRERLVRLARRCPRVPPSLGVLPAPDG

[13] = target: GRIP2_4, Q9C0E4
Chain of GRIP2_4, Q9C0E4 (Q9C0E4 446-548): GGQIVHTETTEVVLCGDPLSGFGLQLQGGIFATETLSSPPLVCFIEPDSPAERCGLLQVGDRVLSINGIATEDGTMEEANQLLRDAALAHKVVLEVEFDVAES

[14] = target: FRMPD4, Q14CM0
Chain of FRMPD4, Q14CM0 (Q14CM0 67-160): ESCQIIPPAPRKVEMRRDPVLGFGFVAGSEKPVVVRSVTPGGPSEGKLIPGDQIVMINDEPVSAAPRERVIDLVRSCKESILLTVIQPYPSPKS

[15] = target: TJP2_1, Q9UDY2
Chain of TJP2_1, Q9UDY2 (Q9UDY2 24-128): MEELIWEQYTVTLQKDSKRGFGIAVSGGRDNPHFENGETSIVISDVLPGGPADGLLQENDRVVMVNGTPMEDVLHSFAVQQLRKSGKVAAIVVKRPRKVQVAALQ

[16] = target: MAGI2_2, Q86UL8
Chain of MAGI2_2, Q86UL8 (Q86UL8 410-522): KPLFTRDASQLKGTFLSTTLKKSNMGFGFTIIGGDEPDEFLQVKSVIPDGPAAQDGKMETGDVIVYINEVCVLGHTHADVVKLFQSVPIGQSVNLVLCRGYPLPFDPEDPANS

[17] = target: MAGI2_4, Q86UL8
Chain of MAGI2_4, Q86UL8 (Q86UL8 772-865): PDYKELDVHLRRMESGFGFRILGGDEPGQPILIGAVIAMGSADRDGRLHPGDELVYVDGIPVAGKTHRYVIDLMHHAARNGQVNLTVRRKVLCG

[18] = target: GRIP2_7, Q9C0E4
Chain of GRIP2_7, Q9C0E4 (Q9C0E4 934-1023): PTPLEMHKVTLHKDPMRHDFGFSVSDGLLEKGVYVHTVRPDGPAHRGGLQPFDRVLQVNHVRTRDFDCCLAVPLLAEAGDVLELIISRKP

[19] = target: T3, SYNJ2BP, P57105
[20] = target: SCRIB_1, Q14160
Chain of SCRIB_1, Q14160 (Q14160 718-814): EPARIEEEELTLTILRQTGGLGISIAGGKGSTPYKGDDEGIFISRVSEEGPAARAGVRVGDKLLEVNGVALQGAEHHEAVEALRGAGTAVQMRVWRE

[21] = target: T4, GRIP1_3, Q9Y3R0
[22] = target: CASK, O14936
Chain of CASK, O14936 (O14936 487-570): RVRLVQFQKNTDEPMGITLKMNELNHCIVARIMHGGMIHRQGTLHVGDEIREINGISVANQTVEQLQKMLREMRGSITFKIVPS

[23] = target: T5, APBA1_1, Q02410
[24] = target: SNX27, Q96L92
[25] = target: T6, TJP3_3, O95049
[26] = target: T7, GRIP1_5, Q9Y3R0
[27] = target: T8, GRIP1_2, Q9Y3R0
[28] = target: T9, APBA2_1, Q99767

Binder	pKd [1]	pKd [2]	pKd [3]	pKd [4]	pKd [5]	pKd [6]	pKd [7]	pKd [8]	pKd [9]	pKd [10]	pKd [11]	pKd [12]	pKd [13]	pKd [14]	pKd [15]	pKd [16]	pKd [17]	pKd [18]	pKd [19]	pKd [20]	further results
EAVTVESTSL [SLC22A11, Q9NSA0]	below the threshold	below the threshold	below the threshold	below the threshold	3.79	below the threshold	4.43	below the threshold	below the threshold	below the threshold	below the threshold	below the threshold	below the threshold	4.23	below the threshold	below the threshold	below the threshold	below the threshold	4.15	4.56	pKd [21]: below the threshold; pKd [22]: below the threshold; pKd [23]: below the threshold; pKd [24]: 5.41; pKd [25]: below the threshold; pKd [26]: below the threshold; pKd [27]: below the threshold; pKd [28]: 3.54
AHGSTRDQSI [KCNB1, Q14721]	below the threshold	3.48	below the threshold	below the threshold	below the threshold	below the threshold	below the threshold	below the threshold	3.67	below the threshold	4.06	below the threshold	3.68	below the threshold	below the threshold	below the threshold	3.9	below the threshold	below the threshold	below the threshold	pKd [21]: below the threshold; pKd [22]: below the threshold; pKd [23]: below the threshold; pKd [24]: below the threshold; pKd [25]: 3.51; pKd [26]: 3.54; pKd [27]: below the threshold; pKd [28]: below the threshold
QQGLLPHSSC [TYRO3, Q06418]	below the threshold	below the threshold	below the threshold	below the threshold	below the threshold	below the threshold	below the threshold	below the threshold	below the threshold	below the threshold	below the threshold	below the threshold	below the threshold	below the threshold	below the threshold	below the threshold	below the threshold	below the threshold	below the threshold	below the threshold	pKd [21]: below the threshold; pKd [22]: below the threshold; pKd [23]: below the threshold; pKd [24]: below the threshold; pKd [25]: below the threshold; pKd [26]: below the threshold; pKd [27]: below the threshold; pKd [28]: below the threshold
PEKVSNTTVV [IGSF5, Q9NSI5]	below the threshold	below the threshold	below the threshold	below the threshold	below the threshold	below the threshold	below the threshold	below the threshold	4.33	below the threshold	below the threshold	below the threshold	below the threshold	below the threshold	below the threshold	4.13	3.7	below the threshold	3.51	3.56	pKd [21]: below the threshold; pKd [22]: below the threshold; pKd [23]: below the threshold; pKd [24]: 4.51; pKd [25]: below the threshold; pKd [26]: below the threshold; pKd [27]: below the threshold; pKd [28]: below the threshold

Reference: article PMC9482650, “Quantitative fragmentomics allow affinity mapping of interactomes” (Nature Communications, 2022)
